Data: patent US20230065562A1, “DUAL CONTROLS FOR THERAPEUTIC CELL ACTIVATION OR ELIMINATION” (Bellicum Pharmaceuticals, Inc., priority 2015, published 2023)

Each molecule was assayed on HEK293T/16 cells (assay: Secreted alkaline phosphatase (SEAP)-based surrogate killing assay of iCasp9 mutants). Details: SEAP assay without AP1903.
Assay type: cell-based, human

| Molecule | Basal Activity (relative to wild type/unmodified Caspase-9) |
| --- | --- |
| N405Qco: codon-optimized version of N405Q modified Caspase-9 (protein, UniProt P55211 1-416, looked up, variant N405Q, FKBP12-F36V fusion (iCasp9), codon-optimized) MDEADRRLLRRCRLRLVEELQVDQLWDALLSRELFRPHMIEDIQRAGSGSRRDQARQLIIDLETRGSQALPLFISCLEDTGQDMLASFLRTNRQAAKLSKPTLENLTPVVLRPEIRKPEVLRPETPRPVDIGSGGFGDVGALESLRGNADLAYILSMEPCGHCLIINNVNFCRESGLRTRTGSNIDCEKLRRRFSSLHFMVEVKGDLTAKKMVLALLELAQQDHGALDCCVVVILSHGCQASHLQFPGAVYGTDGCPVSVEKIVNIFNGTSCPSLGGKPKLFFIQACGGEQKDHGFEVASTSPEDESPGSNPEPDATPFQEGLRTFDQLDAISSLPTPSDIFVSYSTFPGFVSWRDPKSGSWYVETLDDIFEQWAHSEDLQSLLLRVANAVSVKGIYKQMPGCFQFLRKKLFFKTS | Decreased |
| S307A: modified iCasp9, S307A (protein, UniProt P55211 1-416, looked up, variant S307A, FKBP12-F36V fusion (iCasp9), CARD deleted) MDEADRRLLRRCRLRLVEELQVDQLWDALLSRELFRPHMIEDIQRAGSGSRRDQARQLIIDLETRGSQALPLFISCLEDTGQDMLASFLRTNRQAAKLSKPTLENLTPVVLRPEIRKPEVLRPETPRPVDIGSGGFGDVGALESLRGNADLAYILSMEPCGHCLIINNVNFCRESGLRTRTGSNIDCEKLRRRFSSLHFMVEVKGDLTAKKMVLALLELAQQDHGALDCCVVVILSHGCQASHLQFPGAVYGTDGCPVSVEKIVNIFNGTSCPSLGGKPKLFFIQACGGEQKDHGFEVASTSPEDEAPGSNPEPDATPFQEGLRTFDQLDAISSLPTPSDIFVSYSTFPGFVSWRDPKSGSWYVETLDDIFEQWAHSEDLQSLLLRVANAVSVKGIYKQMPGCFNFLRKKLFFKTS | Decreased |
| D330A-T317E: modified iCasp9 double mutant (protein, UniProt P55211 1-416, looked up, variant D330A T317E, FKBP12-F36V fusion (iCasp9), CARD deleted, modified iCasp9 double mutant) MDEADRRLLRRCRLRLVEELQVDQLWDALLSRELFRPHMIEDIQRAGSGSRRDQARQLIIDLETRGSQALPLFISCLEDTGQDMLASFLRTNRQAAKLSKPTLENLTPVVLRPEIRKPEVLRPETPRPVDIGSGGFGDVGALESLRGNADLAYILSMEPCGHCLIINNVNFCRESGLRTRTGSNIDCEKLRRRFSSLHFMVEVKGDLTAKKMVLALLELAQQDHGALDCCVVVILSHGCQASHLQFPGAVYGTDGCPVSVEKIVNIFNGTSCPSLGGKPKLFFIQACGGEQKDHGFEVASTSPEDESPGSNPEPDAEPFQEGLRTFDQLAAISSLPTPSDIFVSYSTFPGFVSWRDPKSGSWYVETLDDIFEQWAHSEDLQSLLLRVANAVSVKGIYKQMPGCFNFLRKKLFFKTS | dead |
| ^402GCFNF^406QPTFT: modified iCasp9, residues 402-406 replaced by Caspase-8 QPTFT (protein, UniProt P55211 1-416, looked up, variant G402Q C403P F404T N405F F406T, FKBP12-F36V fusion (iCasp9), CARD deleted, modified iCasp9, residues 402-406 replaced by Caspase-8 QPTFT) MDEADRRLLRRCRLRLVEELQVDQLWDALLSRELFRPHMIEDIQRAGSGSRRDQARQLIIDLETRGSQALPLFISCLEDTGQDMLASFLRTNRQAAKLSKPTLENLTPVVLRPEIRKPEVLRPETPRPVDIGSGGFGDVGALESLRGNADLAYILSMEPCGHCLIINNVNFCRESGLRTRTGSNIDCEKLRRRFSSLHFMVEVKGDLTAKKMVLALLELAQQDHGALDCCVVVILSHGCQASHLQFPGAVYGTDGCPVSVEKIVNIFNGTSCPSLGGKPKLFFIQACGGEQKDHGFEVASTSPEDESPGSNPEPDATPFQEGLRTFDQLDAISSLPTPSDIFVSYSTFPGFVSWRDPKSGSWYVETLDDIFEQWAHSEDLQSLLLRVANAVSVKGIYKQMPQPTFTLRKKLFFKTS | dead |
| Y153A: modified iCasp9, Y153A (protein, UniProt P55211 1-416, looked up, variant Y153A, FKBP12-F36V fusion (iCasp9), CARD deleted) MDEADRRLLRRCRLRLVEELQVDQLWDALLSRELFRPHMIEDIQRAGSGSRRDQARQLIIDLETRGSQALPLFISCLEDTGQDMLASFLRTNRQAAKLSKPTLENLTPVVLRPEIRKPEVLRPETPRPVDIGSGGFGDVGALESLRGNADLAAILSMEPCGHCLIINNVNFCRESGLRTRTGSNIDCEKLRRRFSSLHFMVEVKGDLTAKKMVLALLELAQQDHGALDCCVVVILSHGCQASHLQFPGAVYGTDGCPVSVEKIVNIFNGTSCPSLGGKPKLFFIQACGGEQKDHGFEVASTSPEDESPGSNPEPDATPFQEGLRTFDQLDAISSLPTPSDIFVSYSTFPGFVSWRDPKSGSWYVETLDDIFEQWAHSEDLQSLLLRVANAVSVKGIYKQMPGCFNFLRKKLFFKTS | Decreased |
| D330A-Y153F: modified iCasp9 double mutant (protein, UniProt P55211 1-416, looked up, variant D330A Y153F, FKBP12-F36V fusion (iCasp9), CARD deleted, modified iCasp9 double mutant) MDEADRRLLRRCRLRLVEELQVDQLWDALLSRELFRPHMIEDIQRAGSGSRRDQARQLIIDLETRGSQALPLFISCLEDTGQDMLASFLRTNRQAAKLSKPTLENLTPVVLRPEIRKPEVLRPETPRPVDIGSGGFGDVGALESLRGNADLAFILSMEPCGHCLIINNVNFCRESGLRTRTGSNIDCEKLRRRFSSLHFMVEVKGDLTAKKMVLALLELAQQDHGALDCCVVVILSHGCQASHLQFPGAVYGTDGCPVSVEKIVNIFNGTSCPSLGGKPKLFFIQACGGEQKDHGFEVASTSPEDESPGSNPEPDATPFQEGLRTFDQLAAISSLPTPSDIFVSYSTFPGFVSWRDPKSGSWYVETLDDIFEQWAHSEDLQSLLLRVANAVSVKGIYKQMPGCFNFLRKKLFFKTS | dead |
| S144A: modified iCasp9, S144A (protein) VDGFGDVGALEALRGNADLAYILSMEPCGHCLIINNVNFCRESGLRTRTGSNIDCEKLRRRFSSLHFMVEVKGDLTAKKMVLALLELARQDHGALDCCVVVILSHGCQASHLQFPGAVYGTDGCPVSVEKIVNIFNGTSCPSLGGKPKLFFIQACGGEQKDHGFEVASTSPEDESPGSNPEPDATPFQEGLRTFDQLDAISSLPTPSDIFVSYSTFPGFVSWRDPKSGSWYVETLDDIFEQWAHSEDLQSLLLRVANAVSVKGIYKQMPGCFNFLRKKLFFKTSASRA | Decreased |
| S144D: modified iCasp9, S144D (protein) VDGFGDVGALEDLRGNADLAYILSMEPCGHCLIINNVNFCRESGLRTRTGSNIDCEKLRRRFSSLHFMVEVKGDLTAKKMVLALLELARQDHGALDCCVVVILSHGCQASHLQFPGAVYGTDGCPVSVEKIVNIFNGTSCPSLGGKPKLFFIQACGGEQKDHGFEVASTSPEDESPGSNPEPDATPFQEGLRTFDQLDAISSLPTPSDIFVSYSTFPGFVSWRDPKSGSWYVETLDDIFEQWAHSEDLQSLLLRVANAVSVKGIYKQMPGCFNFLRKKLFFKTSASRA | Decreased |
| S196D: modified iCasp9, S196D (protein) VDGFGDVGALESLRGNADLAYILSMEPCGHCLIINNVNFCRESGLRTRTGSNIDCEKLRRRFSDLHFMVEVKGDLTAKKMVLALLELARQDHGALDCCVVVILSHGCQASHLQFPGAVYGTDGCPVSVEKIVNIFNGTSCPSLGGKPKLFFIQACGGEQKDHGFEVASTSPEDESPGSNPEPDATPFQEGLRTFDQLDAISSLPTPSDIFVSYSTFPGFVSWRDPKSGSWYVETLDDIFEQWAHSEDLQSLLLRVANAVSVKGIYKQMPGCFNFLRKKLFFKTSASRA | Decreased |

Same assay, conditions: marked '*, predicated'

| Molecule | Basal Activity (relative to wild type), predicted mutants (*) |
| --- | --- |
| N405Q-S144Aco: codon-optimized double mutant, class predicted (protein, UniProt P55211 1-416, looked up, variant N405Q S144A, FKBP12-F36V fusion (iCasp9), codon-optimized, codon-optimized double mutant, class predicted) MDEADRRLLRRCRLRLVEELQVDQLWDALLSRELFRPHMIEDIQRAGSGSRRDQARQLIIDLETRGSQALPLFISCLEDTGQDMLASFLRTNRQAAKLSKPTLENLTPVVLRPEIRKPEVLRPETPRPVDIGSGGFGDVGALEALRGNADLAYILSMEPCGHCLIINNVNFCRESGLRTRTGSNIDCEKLRRRFSSLHFMVEVKGDLTAKKMVLALLELAQQDHGALDCCVVVILSHGCQASHLQFPGAVYGTDGCPVSVEKIVNIFNGTSCPSLGGKPKLFFIQACGGEQKDHGFEVASTSPEDESPGSNPEPDATPFQEGLRTFDQLDAISSLPTPSDIFVSYSTFPGFVSWRDPKSGSWYVETLDDIFEQWAHSEDLQSLLLRVANAVSVKGIYKQMPGCFQFLRKKLFFKTS | Decreased |
